Legend:
[1] = tested on: cultured PBMCs of the allergic donors; assay: ELISPOT of IL-5 or IFNg production by cultured PBMCs of TG allergic donors in response to peptide; assay type: cell-based, human; settings: NTGA number given = criterion met; TG allergic donors n=20
Method in brief: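 Counts of responding donors among 20 TG-allergic subjects, judged by ELISPOT for IL-5 or IFNg (positive: minimum 20 SFCs/10^6 PBMCs, stimulation index 2 or more, P .05). Cells were pre-expanded with TG pollen extract or peptide pool, then stimulated at 1×10^5/well with 10 μg/mL peptide.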

splenocytes [2] = assay: Sensitization pattern: in vitro proliferation (3H-thymidine) of splenocytes of mice sensitized to Phl p extract; assay type: cell-based, BALB/c mice; settings: mice sensitized IP with Phl p extract; 6 days stimulation
Source text: Initially, the sensitization pattern of an immunogen of the invention (NTGA 86/51) was investigated in BALB/c mice sensitized to Phl p extract (FIG. 2). For the purposes of these studies, the immunogen were expressed in E. Coli using standard expression protocols.
Mice were sensitized by one intraperitoneal injection with Phl p extract adsorbed to aluminium hydroxide. Eleven days later the mice were euthanized and splenocytes were stimulated in vitro with Phl p extract, Phl p 1, Phl p 5, NTGA 86/51. The cells were incubated for 6 days at 37° C. under 5% CO2 and incorporated 3H-thymidine was counted and used as a measure for T cell proliferation.

splenocytes [3] = assay: Prophylactic SLIT tolerance induction in mice, splenocyte proliferation; assay type: in vivo, BALB/c mice; settings: prophylactic SLIT two weeks
Source text: Then the tolerance induction of NTGA 86/51 was investigated in a prophylactic mice model using sublingual administration (FIG. 3)
The ability of NTGA 86/51 and NTGA 6 to induce prophylactic tolerance was investigated by SLIT treating naive BALB/c mice with NTGA 86/51 or NTGA 6 for two weeks (Monday-Friday) followed by one Phl p extract sensitization or sensitization to the immunogen itself (NTGA 86/51 or NTGA 6) as described above. Eleven days after the sensitization, splenocytes were harvested and stimulated in vitro with NTGA 86/51 as well as Phl p extract.

splenocytes [4] = assay: Bystander tolerance induction by prophylactic SLIT in mice, IP sensitization with NTGA 86/51 together with OVA; assay type: in vivo; settings: for NTGA 86/51 specific in vitro proliferation of splenocytes vs buffer treated mice: FIG. 4
Source text: Bystander tolerance induction by prophylactic SLIT treatment with A0086 (FIG. 4). The ability of NTGA 86/51 to induce bystander tolerance, i.e. to induce tolerance against a non-related protein was investigated by SLIT treating the mice for two weeks with NTGA 86/51 followed by an IP sensitization with NTGA 86/51 together with the unrelated protein ovalbumin (OVA). Following this splenocytes were stimulated in vitro either with NTGA 86/51to confirm the ability of this protein to induce tolerance towards itself, or with OVA to investigate if NTGA 86/51 can induce bystander tolerance towards an unrelated protein.

Molecule | NTGA's containing at least one T cell epitope, Th+ (Col 2) [1] | in vitro T-cell response (splenocyte proliferation) compared to the response to Phl p 5 (splenocytes [2]) | in vitro T-cell response (splenocyte proliferation) compared to the response towards the Phl p extract (splenocytes [2]) | tolerance towards the immunogen itself (proliferation of splenocytes vs buffer (sham) treated mice) (splenocytes [3]; FIG. 3A / 3C) | tolerance towards Phl p extract (proliferation of splenocytes vs buffer (sham) treated mice) (splenocytes [3]; FIG. 3B) | NTGA 86/51 specific in vitro proliferation of splenocytes vs buffer treated mice (splenocytes [4]) | OVA specific in vitro proliferation of splenocytes vs buffer treated mice (bystander tolerance) (splenocytes [4]; FIG. 4B)
NTGA 86/51: Phl p wild type full length protein from which PG+ peptides of NTGA's 86 and 51 derive (protein, Phleum Pratense, Phl p wild type full length protein from which PG+ peptides of NTGA's 86 and 51 derive) MSPAEPTREESVYMAKLAEQAERYEEMVEFMERVAKATGGAGPGEELSVEERNLLSVAYKNVIGARRASWRIISSIEQKEEGRGNDAHATTIRSYRSKIEAELAKICDGILALLDSHLVPSAGAAESKVFYLKMKGDYHRYLAEFKSGAERKEAAESTMNSYKAAQDIALADLAPTHPIRLGLALNFSVFYYEILNSPDRACNLAKQAFDEAISELDSLGEESYKDSTLIMQLLRDNLTLWTSDTNEDGGDEIKEAPAPKESGD | 86/51 | much weaker | much weaker | capable of inducing tolerance towards the immunogen itself | capable of inducing tolerance | reduced proliferation | decreased
ovalbumin (protein, UniProt P01012 2-386, looked up, unrelated protein ovalbumin used as model allergen) Ovalbumin: GSIGAASMEFCFDVFKELKVHHANENIFYCPIAIMSALAMVYLGAKDSTRTQINKVVRFDKLPGFGDSIEAQCGTSVNVHSSLRDILNQITKPNDVYSFSLASRLYAEERYPILPEYLQCVKELYRGGLEPINFQTAADQARELINSWVESQTNGIIRNVLQPSSVDSQTAMVLVNAIVFKGLWEKAFKDEDTQAMPFRVTEQESKPVQMMYQIGLFRVASMASEKMKILELPFASGTMSMLVLLPDEVSGLEQLESIINFEKLTEWTSSNVMEERKIKVYLPRMKMEEKYNLTSVLMAMGITDVFSSSANLSGISSAESLKISQAVHAAHAEINEAGREVVGSAEAGVDAASVSEEFRADHPFLFCIKHIATNAVLFFGRCVSP |  |  |  |  |  | able to downregulate | 

— patent US20160287696A1, “PAN POLLEN IMMUNOGENS AND METHODS AND USES FOR IMMUNE RESPONSE MODULATION” (LA JOLLA INSTITUTE FOR ALLERGY AND IMMUNOLOGY, priority 2013, published 2016)
